Data reported in article PMC3707082.

How the values were obtained:
[1] = molecular target: C-terminally truncated PTEN (t-PTEN, aa 1-378) (human) (UniProt P60484)
[2] = molecular target: C-terminally truncated PTEN (t-PTEN, aa 1-378) (human) (UniProt P60484); remark: listed apart in the source

synthetic C-tail tetraphosphorylated peptide (aa 379-403, 4p-25mer) (from UniProt P60484 379-403)
extent of inhibition of the lipid phosphatase activity of t-PTEN by 4p-25mer with soluble PIP3 substrate [1]: > 95%
inhibition of t-PTEN soluble PIP3 (diC6-PIP3) phosphatase activity by the peptide in trans, malachite green phosphate release, IC50 [2]: 1000 nM
